From patent US20110256132A1 (published 2011)
Read-outs that look alike come from different tables or passages of the source.

What was measured:
[1] = molecular target: T1, mature myostatin (recombinant, dimeric) (mouse polyprotein used for in-house …, UniProt O08689 268-376); experiment: cell-based or functional assay
T1 sequence: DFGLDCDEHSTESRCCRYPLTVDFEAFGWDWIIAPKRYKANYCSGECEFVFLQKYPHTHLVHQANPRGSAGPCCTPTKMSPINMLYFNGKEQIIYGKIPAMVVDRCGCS

[2] = molecular target: T1, mature myostatin (recombinant, dimeric); experiment: cell-based or functional assay; remark: listed apart in the source
[3] = molecular target: T1, mature myostatin (recombinant, dimeric); experiment: ELISA, plate-coated myostatin (R&D Systems), mean EC50
Protocol: 10B3 and 10B3 chimera (10B3C) bound myostatin (R&D Systems, 788-G8-010/CF) in a sandwich ELISA. Plates were coated with myostatin at 10 ng/well and blocked with Block solution (PBS, 0.1% TWEEN and 1% BSA). Following washing (PBS, 0.1% TWEEN), antibody was incubated at 37° C. for 2 hours over a dilution series and plates washed again prior to incubation at 37° C. for 1 hour with anti-mouse HRP or anti-human HRP (Dako, P0161 & Sigma, A-8400, respectively). Plates were again washed and OPD substrate (Sigma, P9187) added until colourometric reaction occurred and the reaction stopped by the addition of H₂SO₄.

[4] = molecular target: T1, mature myostatin (recombinant, dimeric); experiment: myostatin binding ELISA with purified antibody (made in CHOE1a), 10 ng/well recombinant myostatin coated, anti-human kappa HRP, A490 (Examples 4.1, 4.2)
Protocol: The myostatin binding ELISA was carried out approximately according to this protocol. A 96-well ELISA plate was coated at 4° C. overnight with 10 ng/well recombinant myostatin. This plate was then washed 3-times in wash buffer (PBS, 0.1% Tween-20). The wells were blocked for 1 hour at room temperature with block solution (PBS, 0.1% Tween-20+1% bovine serum albumin [BSA]), before washing 3-times in wash buffer. Antibodies were then titrated out to a suitable concentration range (approximately 100 to 0.001 μg/ml), added to the plate and incubated for 1 hour at room temperature. The plate was then washed 3-times in wash buffer. An anti-mouse IgG HRP-conjugated antibody (P0260 by Dako, this reagent was used according to the manufacturer's instructions) was used to detect binding of mouse antibodies, such as 10B3. An anti-human kappa light chain HRP-conjugated antibody (A7164 by Sigma Aldridge, this reagent was used according to the manufacturer's instructions) was used to detect binding of humanized or chimeric antibodies, such as 10B3 chimera or H0L0. The plate was then washed 3-times in wash buffer and developed with an OPD substrate (from Sigma, used according to the manufacturer's instructions) and read at 490 nm on a plate reader.

[5] = molecular target: T1, mature myostatin (recombinant, dimeric); experiment: BIAcore T100, antibody captured on protein A (C1 chip), myostatin analyte, all curves Bivalent model
Protocol: (§1) The affinity of 10B3 mouse parental and 10B3C for recombinant myostatin was assessed by BIAcore™ (surface plasmon resonance) analysis. Analysis was carried out by the use of a capture surface: anti-mouse IgG was coupled to a C1 chip by primary amine coupling for 10B3 mouse parental; and a protein A surface was created on a C1 chip by primary amine coupling for 10B3 chimera.
(§2) After capture, recombinant myostatin was passed over the surface at 64 nM, 16 nM, 4 nM, 1 nM, 0.25 nM and 0.0625 nM, with a buffer injection (i.e. 0 nM) used for double referencing. There was a regeneration step between each analyte injection, after which the new antibody capture event occurred before the next injection of myostatin. The data was analysed using both the 1:1 model and the Bivalent model inherent to the T100 machines analysis software (see Table 6). Both capture surfaces could be regenerated using 100 mM phosphoric acid, the work was carried out using HBS-EP as the running buffer and using 25° C. as the analysis temperature.

[6] = molecular target: T1, mature myostatin (recombinant, dimeric); experiment: BIAcore, low density myostatin surface, antibody analyte, 1:1 model
Protocol: (§3) Purified H0L0, H1L2 and H2L2 bound recombinant myostatin by BIAcore™ Recombinant myostatin was immobilised at three different densities (low, medium and high, to give R-max values of approximately 35, 120 and 350 RU's respectively) onto a BIAcore™ chip. Antibodies were passed over at 256, 64, 16, 4 and 1 nM. 0 nM antibody was used for double referencing and data was fitted to the 1:1 model.

[7] = molecular target: T1, mature myostatin (recombinant, dimeric); experiment: BIAcore, low density myostatin surface, methods as in 4.3
[8] = molecular target: T1, mature myostatin (recombinant, dimeric); experiment: ELISA: inhibition of 2 nM biotinylated myostatin binding to plate-coated ActRIIb, mean IC50
Protocol: Recombinant soluble ActRIIb (R&D Systems 339-RBB) was coated in wells of an ELISA plate at 1 μg/ml in carbonate buffer overnight at 4° C. Plates were blocked (see Block solution above at 2.3) and washed following standard ELISA protocols. In parallel, 2 nM biotinylated myostatin (in-house, as described in 1.1, biotinylated material) was pre-incubated with an antibody dilution series consisting of 10B3, 10B3C, and a negative control (IgG1 isotype control) for 2 hours at 37° C. The biotinylated myostatin:antibody reactions were then added to the ActRIIb coated plate for 1 hour at 37° C. Standard wash procedures were followed prior to addition of 1:1000 diluted streptavidin-HRP conjugate (Dako P0397) and a further 37° C. incubation for 1 hour. Plates were again washed and assayed at absorbance 490 nm following OPD substrate (Sigma) and acid stop solution treatment Inhibition curves and IC50 values for the inhibition of myostatin activity are shown in FIG. 5 and Table 8 respectively.

[9] = molecular target: T1, mature myostatin (recombinant, dimeric); experiment: BIAcore, medium density myostatin surface, antibody analyte, 1:1 model (poor fits)
Protocol: as §3

[10] = molecular target: T1, mature myostatin (recombinant, dimeric); experiment: cell-based or functional assay; remark: listed apart in the source
[11] = molecular target: T1, mature myostatin (recombinant, dimeric); experiment: BIAcore T100, antibody captured on protein A (C1 chip), myostatin analyte, all curves 1:1 model
Protocol: as §1, §2

[12] = molecular target: T1, mature myostatin (recombinant, dimeric); experiment: cell-based or functional assay; remark: listed apart in the source
[13] = molecular target: T1, mature myostatin (recombinant, dimeric); experiment: BIAcore, high density myostatin surface, antibody analyte, 1:1 model (poor fits)
Protocol: as §3

[14] = molecular target: T1, mature myostatin (recombinant, dimeric); experiment: cell-based or functional assay; remark: listed apart in the source
[15] = molecular target: T1, mature myostatin (recombinant, dimeric); experiment: myostatin binding ELISA after 48 h at 37 C in 1% ammonium bicarbonate pH 9.0 (Examples 5.2, 4.2), A490
[16] = molecular target: T1, mature myostatin (recombinant, dimeric); experiment: FORTEbio bio-layer interferometry, myostatin amine-coupled to sensor, 20 nM antibody, 1:1 fit
Protocol: The affinity of 10B3 mouse parental and H2L2-C91S developability variant for recombinant myostatin was also assessed by FORTEbio™ (bio-layer inferometry) analysis. FORTEbio™ analyses were carried out by antigen capture. Myostatin (in-house, see above at 1.1) was coupled onto amine reactive biosensors by primary amine coupling in accordance with the manufacturer's instructions. Antibodies were then captured onto this surface at 20 nM concentrations. The data was analysed using the evaluation software inherent in the machine and the data analysed using 1:1 fit (see Table 16). Due to the limited number of myostatin molecules bound to the sensor surface and the low antibody concentration, avidity effects are reduced, enabling a more accurate measure of affinity compared to the Biacore analyses. […] However, due to the nature of the binding of the antibodies to myostatin, these values are mainly used for ranking purposes, and the affinity may not be representative of the affinity in vivo.

[17] = molecular target: T1, mature myostatin (recombinant, dimeric); experiment: cell-based or functional assay; remark: listed apart in the source
[18] = molecular target: T1, mature myostatin (recombinant, dimeric); experiment: ProteOn XPR36, antibody captured from supernatant, myostatin analyte
Protocol: The initial kinetic analyses for the CDRH3 screen were carried out on the ProteOn XPR36 (Biorad Laboratories). For residues R95 to P100_B, analysis was carried out using a Protein A/G capture surface (Pierce 21186) was used and for residues A100_C to V102, an anti-human IgG surface was used (Biacore/GE Healthcare BR-1008-39). Both capture surfaces were prepared similarly using primary amine coupling to immobilise the capture molecule on a GLM chip (Biorad Laboratories 176-5012). CDRH3 variants were captured directly on either the Protein A/G or anti-human IgG surface (depending on the residue mutated) from tissue culture supernatants from transient transfections expressing the particular variant of interest. After capture, in-house recombinant human myostatin (see 1.1 above) was used as an analyte at 256 nM, 32 nM, 4 nM, 0.5 nM and 0.0625 nM, with a buffer injection alone (i.e. 0 nM) used to double reference the binding curves. Following the myostatin binding event, the capture surfaces were regenerated: for the Protein A/G capture surface, 100 mM phosphoric acid was used to regenerate the capture surface; and for the anti-human IgG surface, 3M MgCl₂ was used to regenerate the capture surface; the regeneration removed the previously captured antibody ready for another cycle of capture and binding analysis. […]

[19] = molecular target: T1, mature myostatin (recombinant, dimeric); experiment: myostatin binding ELISA after 48 h at 37 C in PBS (Examples 5.2, 4.2), A490
[20] = molecular target: T1, mature myostatin (recombinant, dimeric); experiment: BIAcore, low density myostatin surface

B1: 10B3 chimera (antibody, human IgG1, kappa, V domains shown)
VH: EVQLQQSGPELVKPGASVKISCKASGYSFTGYFMHWVKQSHGNILDWIGNIYPYNGVSNYNQRFKAKATLTVDKSSSTAYMELRSLTSEDSAVYYCARRYYYGTGPADWYFDVWGTGTLVTVSS
VL: DIKMTQSPSSMYASLRERVTITCKASQDINSYLSWFQQKPGKSPKTLIYRANRLVDGVPSRFSGSGSGQDYSLTISSLEYEDMGIYYCLQCDEFPLTFGAGTKLELKR
notes: Mouse variable regions on human IgG1/kappa wild type constant regions; also called HCLC; HcLc
[1]
  Mean IC50, A204 in vitro activity assay (5 nM myostatin): 3.53 nM
[2]
  Mean IC50, myostatin responsive reporter gene assay (A204 cells, luciferase): 6.2 nM
[3]
  EC50: 0.049 µg/mL
[4]
  EC50 (read off the curve): ~0.1 µg/mL
[5]
  Kd: 3.6 nM
[6]
  Kd: 1.61 nM
  koff: 0.000967 s⁻¹
  kon: 599000 M⁻¹ s⁻¹
[7]
  Kd: 4.44 nM
[8]
  IC50: 0.138 µg/mL
[9]
  Kd: 1.35 nM
  koff: 0.000559 s⁻¹
  kon: 413000 M⁻¹ s⁻¹
[10]
  Mean IC50, A204 in vitro activity assay: 3.57 nM
[11]
  Kd: 0.088 nM
[12]
  Mean IC50, A204 in vitro activity assay: 5.1 nM
[13]
  Kd: 0.882 nM
  koff: 0.000218 s⁻¹
  kon: 248000 M⁻¹ s⁻¹
[14]
  Mean IC50, A204 in vitro activity assay: 8.45 nM

B2: H2L2 C91S (H2L2-C91S) (antibody, human IgG1, kappa, V domains shown)
VH: QVQLVQSGAEVKKPGASVKVSCKASGYSFTGYFMHWVRQAPGQGLEWMGNIYPYNGVSNYNQRFKARVTMTTDTSTSTAYMELRSLRSDDTAVYYCARRYYYGTGPADWYFDVWGQGTLVTVSS
VL: DIQMTQSPSSLSASVGDRVTITCKASQDINSYLSWFQQKPGKAPKSLIYRANRLVDGVPSKFSGSGSGTDYTLTISSLQPEDFATYYCLQSDEFPLTFGQGTKLEIKR
notes: Humanised, human IgG1/kappa; also called base molecule; base H2L2-C91S
[1]
  Mean IC50, A204 in vitro activity assay (5 nM myostatin): 5.14 nM
[15]
  EC50 (read off the curve): ~1 nM
[16]
  Kd: 0.073 nM
  koff: 2.99e-05 s⁻¹
  kon: 410000 M⁻¹ s⁻¹
[7]
  Kd: 16.6 nM
[17]
  Mean IC50, A204 in vitro activity assay: 4.08 nM
[14]
  Mean IC50, A204 in vitro activity assay: 9.26 nM

B3: CDRH3 variant F100G_S of H2L2-C91S (antibody, human IgG1, kappa, V domains shown)
VH: QVQLVQSGAEVKKPGASVKVSCKASGYSFTGYFMHWVRQAPGQGLEWMGNIYPYNGVSNYNQRFKARVTMTTDTSTSTAYMELRSLRSDDTAVYYCARRYYYGTGPADWYSDVWGQGTLVTVSS
VL: DIQMTQSPSSLSASVGDRVTITCKASQDINSYLSWFQQKPGKAPKSLIYRANRLVDGVPSKFSGSGSGTDYTLTISSLQPEDFATYYCLQSDEFPLTFGQGTKLEIKR
notes: tested only in the supernatant screen
[18]
  binding result: binds

B4: H2L2 N54Q (H2L2-N54Q) (antibody, human IgG1, kappa, V domains shown)
VH: QVQLVQSGAEVKKPGASVKVSCKASGYSFTGYFMHWVRQAPGQGLEWMGNIYPYQGVSNYNQRFKARVTMTTDTSTSTAYMELRSLRSDDTAVYYCARRYYYGTGPADWYFDVWGQGTLVTVSS
VL: DIQMTQSPSSLSASVGDRVTITCKASQDINSYLSWFQQKPGKAPKSLIYRANRLVDGVPSKFSGSGSGTDYTLTISSLQPEDFATYYCLQCDEFPLTFGQGTKLEIKR
[19]
  EC50 (read off the curve): ~1 nM
[7]
  Kd: 28 nM
[20]
  fold loss in affinity against H2L2: ≥ 2 fold
[14]
  Mean IC50, A204 in vitro activity assay: 12 nM
